# PMC5821868, “Human Semaphorin-4A drives Th2 responses by binding to receptor ILT-4” (Nature Communications, 2018)
# T1: recombinant SEMA4A-Fc (Sino Bio. Inc) (human, UniProt Q9H3S1 33-683)
# T1 construct: Semaphorin-4A (SEMA4A), human; Used only in the SPR experiment, coated on the CM5 chip; Probably the extracellular domain (surmise); no catalogue number is printed; also called hSEMA4A; source: bought: Sino Bio; Inc
# T1 sequence (looked up): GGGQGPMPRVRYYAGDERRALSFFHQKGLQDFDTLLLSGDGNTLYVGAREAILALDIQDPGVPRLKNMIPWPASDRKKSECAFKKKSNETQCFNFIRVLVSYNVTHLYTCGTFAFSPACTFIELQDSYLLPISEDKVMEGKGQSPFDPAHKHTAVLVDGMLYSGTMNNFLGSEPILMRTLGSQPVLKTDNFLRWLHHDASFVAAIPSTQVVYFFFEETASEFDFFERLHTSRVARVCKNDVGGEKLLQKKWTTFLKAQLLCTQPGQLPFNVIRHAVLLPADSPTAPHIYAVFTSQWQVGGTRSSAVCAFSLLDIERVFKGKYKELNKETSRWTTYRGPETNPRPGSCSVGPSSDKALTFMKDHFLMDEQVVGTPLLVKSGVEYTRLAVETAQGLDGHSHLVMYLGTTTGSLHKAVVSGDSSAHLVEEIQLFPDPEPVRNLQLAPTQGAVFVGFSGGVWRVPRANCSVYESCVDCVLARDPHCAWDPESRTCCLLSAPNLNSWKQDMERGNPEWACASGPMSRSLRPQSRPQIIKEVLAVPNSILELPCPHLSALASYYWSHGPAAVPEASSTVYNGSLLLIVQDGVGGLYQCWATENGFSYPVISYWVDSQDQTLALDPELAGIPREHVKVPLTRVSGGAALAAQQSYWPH
# Biological target: T1, recombinant SEMA4A-Fc (Sino Bio. Inc)
# Assay: SPR; SEMA4A-Fc (Sino Bio. Inc, 25 ug/ml) coated on a series S CM5 chip; ILT-4-Fc flowed at 10 to 0.625 uM in twofold dilutions; 25 °C; BIAcore T100
# Conditions: both partners purified
binder,measurement,value
"recombinant ILT-4-Fc fusion protein (R&D Systems) (Fc fusion, human, UniProt Q8N423 22-460, looked up, Immunoglobulin-like transcript 4 (ILT-4, LILRB2), human; APC-labelled with the Zenon labeling kit for flow cytometry; Probably the extracellular domain of ILT-4 (surmise); no catalogue number is printed; also called APC-ILT-4-Fc; hILT-4; source: bought: R&D Systems) QTGTIPKPTLWAEPDSVITQGSPVTLSCQGSLEAQEYRLYREKKSASWITRIRPELVKNGQFHIPSITWEHTGRYGCQYYSRARWSELSDPLVLVMTGAYPKPTLSAQPSPVVTSGGRVTLQCESQVAFGGFILCKEGEDEHPQCLNSQPHARGSSRAIFSVGPVSPNRRWSHRCYGYDLNSPYVWSSPSDLLELLVPGVSKKPSLSVQPGPVMAPGESLTLQCVSDVGYDRFVLYKEGERDLRQLPGRQPQAGLSQANFTLGPVSRSYGGQYRCYGAHNLSSECSAPSDPLDILITGQIRGTPFISVQPGPTVASGENVTLLCQSWRQFHTFLLTKAGAADAPLRLRSIHEYPKYQAEFPMSPVTSAHAGTYRCYGSLNSDPYLLSHPSEPLELVVSGPSMGSSPPPTGPISTPGPEDQPLTPTGSDPQSGLGRHLGV",Kd,3.8 µM
